Consider eleven molecules from patent US11254745 (CROWN BIOSCIENCE, dated 2022).

Residue numbers refer to the chain shown, from its start.

B1: Chimeric 2B6 anti-CD4 antibody (antibody, human IgG1, kappa, V domains shown)
VH: EVQLQESGPSLVKPSQTLSLTCSVTGDSITSGYWNWIRKFPGHKLEFLGYISFADTTNYNPSLKSRVSITRDTSKNQFDLQLKSVTTEDTATYHCARDDYGYYAMDYWGQGISVTVSS
VL: DIHLTQTTSSLSASLGDRVTIICRASQDIDNYLNWYQLKPDGTLKLLIYYTSRLHSGVPSRFSGSGSGTEYSLTISNLEREDVATYFCQQGNTLPTFGAGTKLELKR
B2: Chimeric 33E12 anti-CD4 antibody (antibody, human IgG1, kappa, V domains shown)
VH: DVQLQESGPGLVKPSQSLSLTCTVTGYSITSDYAWNWIRQFPGNKLEWMGYISYSGITSYNPSLKSRFSITRDTSKNQFFLQLNSVTTEDTATYYCARLDSSGYGAMDYWGQGTSVTVSS
VL: DIVLTQSPASLPVSLGQRATISCRASQSVSTSSYSYMHWYQQKPGQPPKLLIRYASNLESGVPARFSGSGSGTDFTLNIHPVEEEDTATYYCQHSWDFPLTFGAGTKLELKR
B3: Chimeric 29B7 anti-CD4 antibody (antibody, human IgG1, kappa, V domains shown)
VH: QVQLQQSGAELAKPGASVKMSCKTSADSLNTHWMHWVKQRPGQGLEWIGYINPYTGSGEYSQKFKGKATLTADISSSTAYMQLISLTSEDSAVYYCAYDSTGAMDYWGQGTSVTVSS
VL: DIKMTQSPSSMYASLGERITITCKASQDINRYLSWFQQKPGKSPKTPIYRADRSVDGVPSRFSGSGSGQDYSLTISSLEYEDMGIYYCQQYDEFPYTFGGGTKLEIKR
B4: Chimeric 11E12 anti-CD4 antibody (antibody, human IgG1, kappa, V domains shown)
VH: B1 VH with Q5E, G32S, V67I, H94Y, Y100F
VL: B1 VL with H3Y, L4V, D30N, S63G, R80Q
B5: Chimeric MT412 anti-CD4 antibody (antibody, human IgG1, kappa, V domains shown)
VH: QIQLVQSGPELKKPGETVKISCKASGYTFTDYSMHWVKQAPGKDLKWMGWINTETGEPTYADDFKGRFAFSLETSASTAYLQINNLKNEDTATYFCAREDYYGHDGFLYWGQGTLVTVSS
VL: DIVMTQSHKFMSTSVGDRVSITCKASQDVVTTVAWYQQKPGQSPKLLIYWASLRHTGVPDRFTGSGSGTDFTLTISNVQFEDLADYFCQQYSSYPYTFGGGTKLEIKR
B6: Chimeric 10C2 anti-CD4 antibody (antibody, human IgG1, kappa, V domains shown)
VH: EVKLQQSGTELMKPGASVKISCKATGYTFSSYWIEWIKQRPGRGLEWIGEILPGSGSTNYNEEFTGRATFTADTFSNTAYMQLSSLTSEDSAVYYCARSVSASNWYFDVWGAGTTVTVSS
VL: B2 VL with L4M, P12A, L50F, R53K, D97E, F98I, L100P, A104G, L110I
B7: 2B6 murine hybridoma anti-CD4 antibody (antibody, V domains shown)
VH: B1 VH
VL: DIHLTQTTSSLSASLGDRVTIICRASQDIDNYLNWYQLKPDGTLKLLIYYTSRLHSGVPSRFSGSGSGTEYSLTISNLEREDVATYFCQQGNTLPTFGAGTKLELK
notes: also called hybridoma clone 2B6
B8: 11E12 murine hybridoma anti-CD4 antibody (antibody, V domains shown)
VH: B1 VH with Q5E, G32S, V67I, H94Y, Y100F
VL: B7 VL with H3Y, L4V, D30N, S63G, R80Q
notes: also called hybridoma clone 11E12
B9: 10C2 murine hybridoma anti-CD4 antibody (antibody, V domains shown)
VH: B6 VH
VL: DIVMTQSPASLAVSLGQRATISCRASQSVSTSSYSYMHWYQQKPGQPPKFLIKYASNLESGVPARFSGSGSGTDFTLNIHPVEEEDTATYYCQHSWEIPPTFGGGTKLEIK
notes: also called hybridoma clone 10C2
B10: 33E12 murine hybridoma anti-CD4 antibody (antibody, V domains shown)
VH: B2 VH
VL: B9 VL with M4L, A12P, F50L, K53R, E97D, I98F, P100L, G104A, I110L
notes: Mouse antibody purified from hybridoma supernatant on Protein A and detected with goat anti-mouse IgG; also called hybridoma clone 33E12
B11: 29B7 murine hybridoma anti-CD4 antibody (antibody, V domains shown)
VH: B3 VH
VL: DIKMTQSPSSMYASLGERITITCKASQDINRYLSWFQQKPGKSPKTPIYRADRSVDGVPSRFSGSGSGQDYSLTISSLEYEDMGIYYCQQYDEFPYTFGGGTKLEIK
notes: also called hybridoma clone 29B7

The first test has as its target T1, human CD4 on 293T cells stably expressing CD4 (CD4-293T) (human, UniProt P01730 26-458).
T1 construct: whole, on cells; also called 293T-CD4 cells; hCD4 (FACS)
In words: FACS on 293T cells expressing human CD4, MFI; table under the graph (unit from the graph's axis); Table 6 of the text gives this value to 11E12. The procedure:
(§1) Cell binding analysis of anti-CD4 antibody was performed using 293T cell line stably expressing CD4 (CD4-293T). 2*10^5 CD4-293T cells were added to each well of 96-well plate and incubated with the indicated hybridoma supernatant or a serial concentrations of purified antibody (starting from 20 μg/mL) at 4° C. for 1 h. After the cells were washed three times with FACS buffer, the secondary antibody (PE Goat anti-mouse: 1:200) was added to the cells at 100 μl/well, and incubated at 4° C. for 40 min. Cells were washed three times with FACS buffer and analyzed by FACS Array. The binding EC50 of purified antibody was calculated with GraphPad Prism 5.
(§2) Freestyle 293 cells (200 mL at 1*10^6/mL) were transfected with 100 µg of each of the chimeric heavy and light chain expression plasmids and cultured for 6 days at 37° C. The chimeric antibody in the supernatant was then purified with Protein-A column (GE healthcare). Binding of the chimeric antibody with CD4 was measured by ELISA (FIG. 3, Table 5) and FACS (FIG. 4, Table 6), using the similar methods described above in Example 2.
The term EC50 denotes the concentration giving half of the maximal effect. Lower therefore signals an effect from little substance. As for B1, the EC50 came out at 0.316 µg/mL.

For the next test, the target named is T1, human CD4 on 293T cells stably …. In words: FACS on 293T cells expressing human CD4, MFI; table under the graph (unit from the graph's axis); Table 6 of the text gives this value to 10C2. The protocol: as §1, §2
In the case of B2, the midpoint of the response, the EC50, lay at 0.882 µg/mL.

A further test shares this target. In words: FACS on 293T cells expressing human CD4, MFI; table under the graph (unit from the graph's axis); Table 6 of the text gives this value to MT412. The procedure: as §1, §2
Regarding B3, the EC50 is 0.515 µg/mL.

A further test shares this target. In words: FACS, chimeric antibody on CD4-293T cells. The procedure:
as §1, §2
For orientation: Flow cytometry measures light scatter and fluorescence of single cells or particles in a stream.
In the case of B1, it took 0.669 µg/mL to reach a half-maximal effect (EC50).
In turn, B4 displayed an EC50 of 0.316 µg/mL.
B5: the EC50 was found to be 0.515 µg/mL.
B2 came in with an EC50 of 0.351 µg/mL.
In turn, B6 registered an EC50 of 0.882 µg/mL.
Same read-out and setting: the result for B3 reads 0.401 µg/mL.

The next test addresses T2, extracellular domain of hCD4 fused with human Fc tag (hCD4-hFc) (human, UniProt P01730 26-396).
T2 construct: extracellular domain; also called human CD4-hFc; hCD4 (ELISA); not shown: human Fc tag
In words: ELISA, purified hybridoma antibody on coated CD4-hFc. The protocol:
(§3) Example 2: Selection of the Anti-hCD4 Hybridoma Antibodies Based on Binding and Gene Reporter Assays The binding interaction between hybridoma antibody and human CD4-hFc was measured by ELISA. 96-well plates (Costar, Cat. No:9018) were coated with 100 μL of 2 μg/ml CD4-hFc (CrownBio) in PBS buffer (Hyclone, Cat. No: SH30256.01B) overnight at 4° C. The wells were aspirated and non-specific binding sites were blocked by adding 200 μL of blocking buffer containing 1% (w/v) of bovine serum albumin (BSA, Roche, Cat. No: 738328) and incubating for 1 hour at 37° C. After the plates are washed three times with PBS buffer containing 0.05% (v/v) Tween™ 20 (Sigma, Cat. No: P1379), 100 μL hybridoma supernatant or a serial concentrations of purified antibody (starting from 20 μg/mL) diluted in blocking buffer was added to each well and incubated at room temperature for 1 hour. The plates were washed and incubated with 100 μL/well of Goat anti-Mouse IgG (Thermo, Cat. No:31432) in blocking buffer for 60 min. After the plates were washed, 100 μL/well of substrate solution TMB (eBioscience, Cat. No:00-4201-56) was added, and the plates were incubated for 2 min at room temperature before 100 μL/well of 2N H_2SO_4 was added to stop the reaction. The colorimetric signals were monitored at 450 nm using a SpectraMax Plus microplate reader (Molecular Devices). For the purified antibody, data were analyzed using GraphPad Prism 5 to calculated the $EC50$.
A general note: An ELISA detects its analyte on a solid surface through an enzyme-linked reagent.
Regarding B7, the EC50 amounted to 0.0261 µg/mL.
As to B8, the response was half-maximal at 0.027 µg/mL (EC50).
The molecule B9 displayed an EC50 of 0.0368 µg/mL.
With B10, a half-maximal effect (EC50) was put at 0.034 µg/mL.
On the same count and under the same terms, the value for B11 was 0.0334 µg/mL.

The target of another test is T1, human CD4 on 293T cells stably …. In words: FACS on 293T cells expressing human CD4, MFI; table under the graph (unit from the graph's axis); Table 6 of the text gives this value to 29B7. The protocol:
as §1, §2
The molecule B4 came in with an EC50 of 0.401 µg/mL.

The next test deals with T2, extracellular domain of hCD4 fused with …. In words: ELISA, chimeric antibody on hCD4, method similar to Example 2. The procedure:
as §3, §2
The molecule B1 returned an EC50 of 0.0165 µg/mL.
B4 returned an EC50 of 0.0168 µg/mL.
Still for that read-out and setting: the result for B5 reads 0.0165 µg/mL; that for B2, 0.0204 µg/mL.
Same read-out and setting: the value for B6 was 0.0179 µg/mL; that for B3 was 0.0243 µg/mL.

The next test addresses T1, human CD4 on 293T cells stably …. In words: FACS on 293T cells expressing human CD4, MFI; table under the graph (unit from the graph's axis); Table 6 of the text gives this value to 2B6. The procedure: as §1, §2
In turn, B6 returned an EC50 of 0.669 µg/mL.

In another test the target is T3, extracellular domain of hCD4 fused with a histidine tag (hCD4-HisTag) (human, UniProt P01730 26-396).
T3 construct: extracellular domain; also called human CD4-HisTag; not shown: histidine tag
In words: Biacore T200 SPR, antibody captured on Protein A, CD4-HisTag analyte, 1:1 fit, 25 C. The protocol:
The binding kinetics between CD4 and CD4 antibodies were measured by Biacore™ analysis, which was performed at 25° C. on a Biacore™ T200 instrument. Protein A (GE, Cat. No:29139131-AA) was diluted with 10 mM pH 5.0 sodium acetate and immobilized onto reference and experiment flow cells of a CM5 biosensor chip to around 15000 RU using an amine coupling kit (GE, BR10050). In the beginning of each cycle, diluted test antibody (1.5 µg/mL) was injected over experiment flow cell for 1 minute to be captured. CD4-HisTag analyte series were prepared by diluting the stocks with running buffer to 100 nM followed by 2-fold serial dilution in the same buffer down to 0.78 nM. Analytes were injected in series over the reference and experiment flow cells for 3 minutes at a flow rate of 30
μL/minute. Running buffer (PBS with 0.05% P20) was allowed to flow over for 10 minutes at a flow rate of 30 μL/minute. At the end of each cycle, the biosensor surface was regenerated with 3-minute injection of 10 mM pH 2.0 Glycine-HCl buffer at a flow rate of 10 μL/minute. For each analyte sample injection (i.e., each cycle), binding responses obtained from the experimental biosensor surface were double referenced by subtracting simultaneously recorded responses from the reference surface followed by additional subtraction of responses from a single referenced running buffer sample. The association and dissociation rate constants (ka and kd) were determined simultaneously by fitting double-referenced sensorgrams of the entire titration series to Langmuir model (1:1) using Biaevaluation software. The dissociation constant, KD, was calculated from the determined rate constants by the equation KD=kd/ka.
Background: SPR reads the build-up and loss of mass on a sensor chip optically.
By Kd is commonly meant the free concentration of one partner at which half of the binding sites on the other are occupied at equilibrium, for simple one-to-one binding. Lower therefore signals tighter binding. For orientation: koff means the rate constant with which the complex falls apart. Read a low koff as a long-lived complex. By kon is commonly meant a measure of how fast the partners come together. High values mean fast association, low ones slow association. B1 came in with a Kd of 0.373 nM, a koff of 0.000122 s⁻¹ and a kon of 327000 M⁻¹ s⁻¹.
On to B4, for which the Kd was found to be 6.26 nM, the koff was 0.00618 s⁻¹ and the kon was 987000 M⁻¹ s⁻¹.
In the same order, the values of B5 are 1.61 nM, 0.000941 s⁻¹ and 586000 M⁻¹ s⁻¹.
In the same order, the values of B2 are 4.25 nM, 0.00461 s⁻¹ and 1.09e+06 M⁻¹ s⁻¹.
B6 had a dissociation constant Kd of 1.19 nM, a koff of 0.00019 s⁻¹ and a kon of 160000 M⁻¹ s⁻¹.
Taken in the same sequence, the figures for B3 were 0.0843 nM, 5.98e-05 s⁻¹ and 709000 M⁻¹ s⁻¹.
